The series concerns MS2 coat protein. Nature of the series: apparent KD of MS2 coat protein; designed switch direction (-1 OFF switch, 1 ON switch): -1; higher = weaker reporter binding. In outline:
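The buffer was Tris-HCl pH 7.5 with KCl, MgCl2, BSA, DTT, tRNA and Tween-20. In it, SNAP-549-labelled MS2 coat protein was titrated in doubling steps from 0.7 or 1.5 nM to 3 µM over chip-bound RNA switches transcribed by stalled E. coli RNA polymerase on Illumina chips. Apparent KD is the per-design median over clusters of curve fits to normalised fluorescence.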

Where [1] appears, read: Eterna round: R95, input ligand: microRNA oligo, concentration not stated.
Where [2] appears, read: Eterna round: R95, input ligand: FMN 200 uM.
[3] abbreviates: Eterna round: R95, input ligand: none.

14 sequences from the supplement of paper PMC9170038 can be followed below.

Regarding “GGUGCGUUUGUGAGGAUAUGCUGGUCCUUGGAUCAGCAGAAGGCACAUGAGGAUCACCCAUGUGGUGUCGUUCC [salish99_Bmod_Ex4_037] (puzzle: Brourd's mod of Exclusion 4)”, under setting [1], the “apparent KD of MS2 coat protein” value was found to be 0.137 µM.
Take “GGUGCGUUUGUGAGGAUAUGCUGGUCCUUGGUUCGGCAGAAGGCACAUGAGGAUCACCCAUGUGGUGUCGCUCC [salish99_Bmod_Ex4_050] (puzzle: Brourd's mod of Exclusion 4)”: under setting [1], the “apparent KD of MS2 coat protein” value stood at 0.0364 µM.
On to “GGUGGGAGGGAUGUGGUGUACAUGAGGAUCACCCAUGUGGUGGACGGGCGCGGGUGCGGGUUUUUUGUUCGUCUUGU [High Nucleotide Full Attached] (Eterna round: R97, puzzle: Sensor, turn-off variant 1)”, for which the “apparent KD of MS2 coat protein” value reads like this: (input ligand: FMN 200 uM) 0.131 µM; (input ligand: none) 0.159 µM.
On to “GGUGUGAGGCAGGAUAUGCAAUAAGUAAGUAAAGCAGAAGGGUCUACAUGAGGAUCACCCAUGUGUGCGGUAGA [Ex6 #1] (Eterna round: R97, puzzle: Exclusion 6)”, for which the “apparent KD of MS2 coat protein” value (input ligand: FMN 200 uM) worked out at 0.249 µM and the “apparent KD of MS2 coat protein” value (input ligand: none) amounted to 0.163 µM.
“GGUUAUUGCAAGGAUAUGCUUAUUUGAGAAAUUGCAGAAGGUGCAACAUGAGGAUCACCCAUGUUGGAUGGGUU [JR_E6_Sub016] (puzzle: Exclusion 6)”: the “apparent KD of MS2 coat protein” value under setting [1] is 0.0607 µM.
On the same count and under the same terms, to “GGUUAUUGCAAGGAUAUGCUUUUUUUUGAUAUUGCAGAAGGUGCAACAUGAGGAUCACCCAUGUUGGAGGGAUU [JR_E6_Sub020] (puzzle: Exclusion 6)” belongs 0.0327 µM; to “GGUUAUUGCAAGGAUAUGCUUUUUUUUUAUAUUGCAGAAGGUGCAACAUGAGGAUCACCCAUGUUGGAGGGAUU [JR_E6_Sub021] (puzzle: Exclusion 6)”, 0.0289 µM.
Regarding “GGUUGACAUGAGGAUCACCCAUGUGAGGAUAUGCGAGAGAAAAAAGUGAGGAAGAGAUGCAGAAGGCGCUGUCG [salish99-ex1_r3_016] (puzzle: Exclusion 1)”, the “apparent KD of MS2 coat protein” value reads like this: under setting [2], 0.0685 µM; under setting [1], 0.0858 µM; under setting [3], 0.121 µM.
Consider “GGUUGGCGAGGAUAUACAUGAGGAUCACCCAUGUCAGAGAAAAAAGUGAGGAAGAAAAGUAGAAGGCGCUGACG [salish99_ex3_r3_017] (puzzle: Exclusion 3)”, for which the “apparent KD of MS2 coat protein” value reads like this: under setting [2], 0.199 µM; under setting [1], 0.21 µM; under setting [3], 0.118 µM.
As to “GGUUGGCGAGGAUAUACAUGAGGAUCACCCAUGUGAGAGAAAAAAGUGAGGAAGCAAAGUAGAAGGCGCUGACG [salish99_ex3_r3_034] (puzzle: Exclusion 3)”, the “apparent KD of MS2 coat protein” value by setting is: under setting [2], 0.117 µM; under setting [1], 0.0428 µM; under setting [3], 0.0778 µM.
Turning to “GGUUGGCGAGGAUAUACAUGAGGAUCACCCAUGUGAGAGAAAAAAGUGAGUAAGAAAAGUAGAAGGCGCUGACG [salish99-ex3-33] (Eterna round: R96, puzzle: Exclusion 3)”, the “apparent KD of MS2 coat protein” value was 0.401 µM (input ligand: FMN 200 uM); 0.051 µM (input ligand: microRNA oligo, concentration not stated); 0.0473 µM (input ligand: none).
In the case of “GGUUGGCGAGGAUAUACAUGAGGAUCACCCAUGUGAGAGAAAGAAGUGAGGAAGAAAAGUAGAAGGCGCUGACG [salish99_ex3_r3_005] (puzzle: Exclusion 3)”, the “apparent KD of MS2 coat protein” value by setting is: under setting [2], 0.542 µM; under setting [1], 0.196 µM; under setting [3], 0.059 µM.
Turning to “GGUUGGCGAGGAUAUACAUGAGGAUCACCCAUGUGGUCCUAAAAUAAAAUAGACCUUUGUAGAAGGCGCGGGUC [salish99_ex3_r4_040] (Eterna round: R97, puzzle: Exclusion 3)”, the “apparent KD of MS2 coat protein” value (input ligand: FMN 200 uM) was 0.139 µM and the “apparent KD of MS2 coat protein” value (input ligand: none) worked out at 0.215 µM.
For the sequence “GGUUGGCGAGGAUAUACAUGAGGAUCACCCAUGUGGUCCUGUGGCUGGAAAAACCUUUGUAGAAGGCGCGGGUC [salish99_ex3_r4_028] (Eterna round: R97, puzzle: Exclusion 3)”, the “apparent KD of MS2 coat protein” value reads like this: (input ligand: FMN 200 uM) 0.258 µM; (input ligand: none) 0.184 µM.
